What is called stoichiometry N is the number of molecules, sites or subunits per partner or assembly.

Experimental findings from article PMC7354611 are described below.

The target in the assay is Bacillus cereus MazF (mRNA interferase BC0266) (Bacillus cereus). The assay can be described thus: SEC; Superdex 75 10/300 GL column, with reference proteins of the Gel Filtration Calibration Kits (GE Healthcare); His-tagged MazF eluted at almost the same time as carbonic anhydrase (29 kDa). A general note: SEC sorts molecules by how far they enter the pores of the column.

“Bacillus cereus MazF (mRNA interferase BC0266) (natural protein)” came in with a stoichiometry N of 2.
